This series has as its target T1, NF-kB p50 homodimer (UniProt P19838).
T1 sequence: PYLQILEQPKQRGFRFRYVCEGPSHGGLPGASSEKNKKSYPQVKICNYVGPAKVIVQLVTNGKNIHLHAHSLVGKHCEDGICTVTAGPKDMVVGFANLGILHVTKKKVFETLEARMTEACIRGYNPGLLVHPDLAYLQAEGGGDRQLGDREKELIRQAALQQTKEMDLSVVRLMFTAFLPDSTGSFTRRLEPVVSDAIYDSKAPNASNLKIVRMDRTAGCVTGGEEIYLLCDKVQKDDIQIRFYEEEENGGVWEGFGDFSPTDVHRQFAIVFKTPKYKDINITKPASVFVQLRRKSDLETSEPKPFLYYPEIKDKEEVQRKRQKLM
As to the kind of experiment: SPR. To be noted: EMSA: 10 mM Tris-HCl pH 7.5, 50 mM NaCl, 1 mM DTT, 1 mM EDTA, BSA (printed 10 mg/mL), 1% NP-40, 5% glycerol, poly(dI-dC), 20 C 45 min, SPR: 10 mM Tris-HCl pH 7.; for binding signal (% of unplatinated plateau): steady state. A general note: A gel shift assay detects complexes by their altered migration in electrophoresis.

Setting [1] is: transplatin adducts, 1 per duplex, global.
Where [2] appears, read: BBR3464 adducts, 1 per duplex, global.

By Kd is commonly meant the concentration at which binding is half-saturated. Under setting [1], “CCTACCAAGTCTGAGGGGACTTTCCCAGGC (double strand) [DUPLEX-kB(SPR-BIO) transplatin]” showed a binding signal (% of unplatinated plateau) of 88 and a Kd of 1.99 nM. Under setting [2], “CCTACCAAGTCTGAGGGGACTTTCCCAGGC (double strand) [DUPLEX-kB(SPR-BIO) BBR3464]” displayed a Kd of 3.99 nM and a binding signal (% of unplatinated plateau) of 21.

Turning to “CCTACCAAGTCTGAGGGGACTTTCCCAGGC (double strand) [DUPLEX-kB(SPR-BIO)]”, the Kd came out at 1.96 nM. For the setting “cisplatin adducts, 1 per duplex, global”, “CCTACCAAGTCTGAGGGGACTTTCCCAGGC (double strand) [DUPLEX-kB(SPR-BIO) cisplatin]” gave a Kd of 2.38 nM.

Values taken from PMC5004165.
